Experimental data from patent US11518805B2, “Binding inhibitor between TCTP dimer type IgE-dependent histamine releasing factor and receptor thereof, and use thereof” (EWHA UNIVERSITY—INDUSTRY COLLABORATION FOUNDATION, priority 2014, dated 2022).
Entries after “also recorded” stand apart in the source; their conditions may differ.

Experiments:
BEAS-2B cells [1] = assay: IL-8 secretion by f-TCTP, Δ-dTCTP and Del-N11dTCTP in BEAS-2B cells; format: cell-based; conditions: protein at 1, 5 or 10 μg/ml, 24 hours, ELISA
Procedure: (§1) To investigate the IL-8 and GM-CSF secretory activity of f-TCTP, Δ-dTCTP, and Del-N11dTCTP in BEAS-2B cells, the present inventors compared the activity of f-TCTP, Δ-dTCTP, and Del-N11dTCTP by measuring the secretion of IL-8 in BEAS-2B cells.
(§2) Particularly, BEAS-2B cells were cultured in a 48-well plate until the confluency reached to 70%. Then, the cells were washed with 1% penicillin-streptomycin/BEBM (Clonetics) twice. Each recombinant protein of the Δ-dTCTP separated in Example 1 of the invention, and the f-TCTP and Del-N11dTCTP constructed by the method described in Korean Patent Application No. 2006-0007663 was added thereto at the concentration of 1 μg/ ? , 5 μg/ ? , or 10 μg/ ? 24 hours later, the supernatant was obtained and the released IL-8 and GM-CSF were quantified by ELISA.

BEAS-2B cells [2] = assay: GM-CSF secretion by f-TCTP, Δ-dTCTP and Del-N11dTCTP in BEAS-2B cells; format: cell-based; conditions: protein at 1, 5 or 10 μg/ml, 24 hours, ELISA
Procedure: as §1, §2

[3] = tested on: dTBP2 (dTCTP binding peptide 2); assay: Affinity of TCTP proteins to immobilized biotinylated dTBP2 (ELISA); conditions: biotinylated dTBP2 0.01-10 μm on streptavidin plate; protein 0.2 μg/ml; ELISA 450/570 nm
Procedure: To investigate the affinity to dTBP2 of f-TCTP, Δ-dTCTP, and Del-N11dTCTP of the present invention, biotin was conjugated to the COOH-terminus of dTBP2 known to bind to HRF, followed by purification. The purified protein was immobilized in the plastic well coated with streptavidin, to which f-TCTP, Δ-dTCTP, and Del-N11dTCTP were added. Then, the binding strength of each protein was investigated.
Particularly, 50 ? of the biotinylated dTBTP2 dissolved in a buffer (TBS [25 mM Tris, 150 mM NaCl, pH 7.2], 0.1% BSA, 0.05% Tween-20) at different concentrations of 0.01, 0.1, 1, and 10 μm was added to Reacti-Bind Streptavidin Coated Polystyrene Plates (PIERCE), followed by reaction at room temperature for 2 hours. The plate was washed with a washing buffer three times. Each of f-TCTP, Δ-dTCTP, and Del-N11dTCTP was dissolved in TBS at the concentration of 0.2 μg/ ? . 60 ? of the mixture was added to each well of the plate, followed by reaction for 1 hour. The plate was washed with a washing buffer three times. 100 ? of anti-HRF rabbit antibody (Bio-Rad) diluted in a buffer (1:2000) was added to each well of the plate, which stood at room temperature for 30 minutes. The plate was washed with a washing buffer three times and with TBS once, to which HRP-conjugated anti-rabbit antibody (1:2000) was added (100 ? /well), which stood at room temperature for 30 minutes. The plate was washed with a washing buffer three times and with TBS once, to which […] (PIERCE), the peroxydase substrate solution, was added (100 ? /well). Color development was measured at 450 nm and 570 nm using an ELISA reader (Bio-Rad), and affinity was determined by the difference.

Del-N11dTCTP [4] = target: T1, Del-N11dTCTP (Rattus norvegicus, UniProt P63029); assay: Inhibition of Del-N11dTCTP-mediated IL-8 secretion by polyclonal antibodies recognizing FL and H2 domains in BEAS-2B cells; format: cell-based; parameters: dose or concentration left out as unconfirmed; conditions: 20 hours
T1 construct: made in house
T1 sequence (P63029 11-172 limits assumed): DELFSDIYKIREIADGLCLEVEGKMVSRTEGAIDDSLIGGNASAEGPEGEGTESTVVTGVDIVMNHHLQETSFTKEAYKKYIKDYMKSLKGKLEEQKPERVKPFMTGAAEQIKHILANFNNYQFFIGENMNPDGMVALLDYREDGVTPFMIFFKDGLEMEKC
Procedure: The inhibitory effect on Del-N11dTCTP-mediated IL-8 secretion by the antibody recognizing FL and H2 domains constructed in Example 6 of the invention was investigated by treating the antibody to BEAS-2B cells.
Particularly, BEAS-2B cells were treated with anti-FL antibody and ani-H2 antibody at different concentrations. Then, Del-N11dTCTP-induced IL-8 secretion was compared. The BEAS-2B cells cultured in a 48-well plate were washed with 1% penicillin-streptomycin/BEBM (Lonza) twice, followed by serum starvation for 7 hours. The antibody diluted in PBS at the concentrations of 1 and 10 ng/ml was reacted with 70 μM Del-N11dTCTP at 37° C. for 2 hours. The reaction mixture was treated to the cells above. 20 hours later, the supernatant was obtained and the released IL-8 therein was quantified by ELISA.

Del-N11dTCTP [5] = target: T1, Del-N11dTCTP; assay: Inhibition of Del-N11dTCTP-mediated IL-8 secretion by polyclonal antibody recognizing C-terminus domain in BEAS-2B cells; format: cell-based; conditions: Del-N11dTCTP 1 μg/mL, 20 hours
Procedure: BEAS-2B cells were treated with the antibody recognizing C-terminus domain constructed in Example 8 in order to investigate whether or not the antibody could inhibit the Del-N11dTCTP-mediated IL-8 secretion.
Particularly, BEAS-2B cells were treated with Del-N11dTCTP (1 μg/mL) by the same manner as described in Experimental Example 4. At this time, the antibody diluted in PBS at the concentration of 40 nM was mixed with 1 μg/mL of Del-N11dTCTP at room temperature, followed by reaction for 10 minutes. The reaction mixture was treated to the cells above. 20 hours later, the supernatant was obtained and the separated IL-8 therein was quantified by ELISA.

IL-8 secretion, Del-N11dTCTP alone (Del-N11dTCTP [4]): increased
IL-8 secretion, PBS together with Del-N11dTCTP (Del-N11dTCTP [5]): increased
B1: Del-N11dTCTP: dimer form of amino terminal-deleted TCTP, active HRF form (protein, UniProt P13693 12-172, looked up, fragment)
chain: EMFSDIYKIREIADGLCLEVEGKMVSRTEGNIDDSLIGGNASAEGPEGEGTESTVITGVDIVMNHHLQETSFTKEAYKKYIKDYMKSIKGKLEEQRPERVKPFMTGAAEQIKHILANFKNYQFFIGENMNPDGMVALLDYREDGVTPYMIFFKDGLEMEKC
modifications: dimer
secretion of IL-8 (BEAS-2B cells [1]): more than f-TCTP and Δ-dTCTP could do; also recorded: superior to f-TCTP and Δ-dTCTP
secretion of GM-CSF (BEAS-2B cells [2]): more than f-TCTP and Δ-dTCTP could do; also recorded: superior to f-TCTP and Δ-dTCTP
affinity to dTBP2 [3]: higher affinity to dTBP2 than f-TCTP or Δ-dTCTP; also recorded: higher dTBP2 affinity than f-TCTP and Δ-dTCTP
